In PMC4720616, “Influence of tumour size on the efficacy of targeted alpha therapy with ^213Bi-[DOTA^0,Tyr^3]-octreotate” (EJNMMI Research, 2016):

Key:
[1] = system: CA20948 (rat pancreatic tumour) tumours; experiment: Targeted alpha therapy: tumour growth and survival, CA20948 tumours; format: in vivo, rat tumour cells in BALB/c (nu/nu) nude mice; conditions: for Mean time to reach a tumour volume of 2000 mm^3: i.v. 2–4 MBq/0.3 nmol ^213Bi-DOTATATE or 0.3 nmol unlabelled DOTATATE (control) on three consecutive days, mean ± SD; for Median survival: follow-up 90 days after treatment
Protocol: (§1) All animal studies were in agreement with the Animal Welfare Committee requirements of Erasmus MC and conducted in accordance with accepted guidelines. Male 6–8-week-old BALB/c (nu/nu) nude mice were obtained from Charles River (Kißlegg, Germany). Subcutaneous tumours were established in mice by inoculation of approximately 5 × 10^6 cells (CA20948 or H69), suspended in 200 μL sterile culture medium Hanks’ balanced salt solution (HBSS) in the case of CA20948 cells. Three days after inoculation of CA20948 cells, a tumour with a tumour size ~50 mm^3 (used for the “smaller” tumour-size group) was reached, and 2 weeks after inoculation, a tumour size ~200 mm^3 (used for the “larger” tumour-size group) was reached. For H69 cells, 200 μL, containing 1/3 Matrigel and 2/3 HBSS medium (Gibco, Life Technologies), was used. The cells were injected subcutaneously (s.c.) into the right flank of the mice. One week after inoculation of tumour cells, tumours with a volume of ~50 mm^3 (used for the smaller tumour-size group) could be detected, and after 3 weeks, tumour volumes reached ~200 mm^3 (used for the larger tumour-size group). Tumour volumes were estimated using a calliper.
(§2) Tumour cells were inoculated into the right flank of the mice, and the tumours were allowed to grow until tumour volumes of approximately 50 and 200 mm^3 were reached, respectively. […] The control group (H69-bearing animals: small tumour n = 10, large tumour n = 9; CA20948-bearing animals: small tumour n = 5, large tumour n = 5) received i.v. via the tail vein three times 0.3 nmol/200 μL of unlabelled DOTATATE for three consecutive days.
(§3) All animals were followed for 90 days after treatment. The behaviour and the health status of the animals were observed daily, and the weight of the animals and the tumour volumes were monitored twice a week.

kidney = conditions: mouse, in vivo
[2] = in the absence of L-lysine; ref manuscript in preparation; cited from earlier work
Description: In patients, the maximum tolerated dose in kidney is postulated to b ...

in vivo = experiment: in vivo; set-up: species or system BALB/c (nu/nu) nude mice; conditions: BALB/c (nu/nu) nude, mouse, iv, total radioactivity
Protocol: (§4) When tumour volumes reached ~120 mm^3, animals were divided into five groups with seven animals in each group for both H69 and CA20948 tumour-bearing animals. […] At 10, 30, 60 and 120 min post injection (p.i.), animals in the four groups were euthanized and tissues and organs of interest (including tumour, kidney, pancreas, spleen, liver, muscle, blood, femur, femur marrow and adrenals) were collected and counted using a gamma counter (Wallac Wizard 3, PerkinElmer, USA). […] The animals of the control group were euthanized 60 min p.i.; tissues and organs of interest were harvested and counted using a gamma counter. Data was expressed in mean percentage of total injected radioactivity per gram tissue (%IA/g) ± SD.

[3] = system: CA20948 tumour-bearing mice; experiment: in vivo; set-up: species or system BALB/c (nu/nu) nude mice; conditions: mouse, iv
Protocol: as §4

H69 tumour-bearing mice = experiment: in vivo; set-up: species or system BALB/c (nu/nu) nude mice; conditions: mouse, iv
Protocol: as §4

[4] = system: H69 (human small cell lung carcinoma) tumours; experiment: Targeted alpha therapy: tumour growth and survival, H69 tumours; format: in vivo, human tumour cells in BALB/c (nu/nu) nude mice; conditions: for Mean time to reach a tumour volume of 2000 mm^3: i.v. 2–4 MBq/0.3 nmol ^213Bi-DOTATATE or 0.3 nmol unlabelled DOTATATE (control) on three consecutive days, mean ± SD; for Median survival: follow-up 90 days after treatment
Protocol: as §1, §2, §3

[5] = 3.8 MBq/0.3 nmol/200 uL, Uptake, Adrenal
[6] = 3.8 MBq/0.3 nmol/200 uL, Uptake, Blood
[7] = 3.8 MBq/0.3 nmol/200 uL, Uptake, Femur
[8] = 3.8 MBq/0.3 nmol/200 uL, Uptake, Kidney
[9] = 3.8 MBq/0.3 nmol/200 uL, Uptake, Liver
[10] = 3.8 MBq/0.3 nmol/200 uL, Uptake, Muscle
[11] = 3.8 MBq/0.3 nmol/200 uL, Uptake, Tumour
[12] = H69 small tumours, after treatment

SMILES: C[C@@H](O)[C@H](NC(=O)[C@@H]1CSSC[C@H](NC(=O)[C@@H](Cc2ccccc2)NC(=O)CN2CCN(CC(=O)O)CCN(CC(=O)O)CCN(CC(=O)O)CC2)C(=O)N[C@@H](Cc2ccc(O)cc2)C(=O)N[C@H](Cc2c[nH]c3ccccc23)C(=O)N[C@@H](CCCCN)C(=O)N[C@@H]([C@@H](C)O)C(=O)N1)C(=O)O [^213Bi-DOTATATE, ^213Bi-[DOTA^0, Tyr^3]-octreotate, metal not drawn]
- Tumour response ([1]; CA20948 large tumours): partial response
- Mean time to reach a tumour volume of 2000 mm^3 ([1]; CA20948 large tumours (~200 mm^3)): 77 ± 25 days
- Median survival ([1]; CA20948 large tumours): 70 days
- Mean time to reach a tumour volume of 2000 mm^3 ([1]; CA20948 small tumours (~50 mm^3)): 76 ± 15 days
- Animals with stable disease till the end of the study ([1]; CA20948 small tumours, after therapy): one
- Animals with no tumour regrowth ([1]; CA20948 small tumours, n = 8 treated): one
- Median survival ([1]; CA20948 small tumours): > 90 days
- Kidney histology, control vs treated animals (kidney): no significant differences were observed
- Maximum tolerated activity [2]: < 13.1 ± 1.2 MBq
- tissue uptake at 10 min (in vivo; 2.1 MBq/0.3 nmol/200 uL, Uptake, Kidney): 51.5 ± 16.6 %ID/g
- tissue uptake at 2 h (in vivo; 2.1 MBq/0.3 nmol/200 uL, Uptakes in other organs (other than tumour and kidney)): < 2 %ID/g
- tissue uptake at 2 h (in vivo; 3.8 MBq/0.3 nmol/200 uL, Uptake in all other organs (other than tumour and kidney)): < 2 %ID/g
- tissue uptake at 0.5 h (in vivo; [5]): 2 ± 0.6 %ID/g
- tissue uptake at 1 h (in vivo; [5]): 0.9 ± 0.4 %ID/g
- tissue uptake at 2 h (in vivo; [5]): 0.7 ± 0.4 %ID/g
- tissue uptake at 10 min (in vivo; [6]): 8.1 ± 1.8 %ID/g
- tissue uptake at 0.5 h (in vivo; [6]): 2.3 ± 1.1 %ID/g
- tissue uptake at 1 h (in vivo; [6]): 0.6 ± 0.2 %ID/g
- tissue uptake at 2 h (in vivo; [6]): 0.1 ± 0.06 %ID/g
- tissue uptake at 0.5 h (in vivo; [7]): 1.5 ± 0.4 %ID/g
- tissue uptake at 1 h (in vivo; [7]): 1 ± 0.5 %ID/g
- tissue uptake at 2 h (in vivo; [7]): 0.4 ± 0.4 %ID/g
- tissue uptake at 10 min (in vivo; [8]): 44 ± 9.6 %ID/g
- tissue uptake at 0.5 h (in vivo; [8]): 28.5 ± 3.7 %ID/g
- tissue uptake at 1 h (in vivo; [8]): 26.2 ± 2.6 %ID/g
- tissue uptake at 2 h (in vivo; [8]): 25 ± 3.8 %ID/g
- tissue uptake at 0.5 h (in vivo; [9]): 0.9 ± 0.09 %ID/g
- tissue uptake at 1 h (in vivo; [9]): 0.4 ± 0.06 %ID/g
- tissue uptake at 2 h (in vivo; [9]): 0.3 ± 0.05 %ID/g
- tissue uptake at 0.5 h (in vivo; [10]): 1.1 ± 0.2 %ID/g
- tissue uptake at 1 h (in vivo; [10]): 1 ± 1.4 %ID/g
- tissue uptake at 2 h (in vivo; [10]): 0.5 ± 0.4 %ID/g
- tissue uptake at 10 min (in vivo; 3.8 MBq/0.3 nmol/200 uL, Uptake, Pancreas): 3.2 ± 0.3 %ID/g
- tissue uptake at 10 min (in vivo; [11]): 7.5 ± 2.2 %ID/g
- tissue uptake at 0.5 h (in vivo; [11]): 9.8 ± 2.4 %ID/g
- tissue uptake at 1 h (in vivo; [11]): 9.8 ± 2.3 %ID/g
- tissue uptake at 2 h (in vivo; [11]): 6.8 ± 3.2 %ID/g
- Blood clearance T1/2 [3]: 14 ± 1 min
- Renal clearance T1/2 [3]: 10 ± 3 min
- Tumour clearance T1/2 [3]: 132 ± 54 min
- Blood clearance T1/2 (H69 tumour-bearing mice): 11 ± 2 min
- Tumour clearance T1/2 (H69 tumour-bearing mice): 138 ± 66 min
- Tumour uptake T1/2 (H69 tumour-bearing mice): 7 ± 2 min
- Tumour response ([4]; H69 large tumours): partial response
- Mean time to reach a tumour volume of 2000 mm^3 ([4]; H69 large tumours (~200 mm^3)): 110 ± 19 days
- Effect on tumour volume ([4]; H69 large tumours, cumulative injected activity 9.4 ± 0.7 MBq): Shrinkage of tumours was observed
- Median survival ([4]; H69 large tumours): > 90 days
- Mean time to reach a tumour volume of 2000 mm^3 ([4]; H69 small tumours (~50 mm^3)): 102 ± 19 days
- Animals with partial response [4, 12]: eight
- Animals with stable disease [4, 12]: two
- Animals with no tumour regrowth until the end of the study at day 90 ([4]; H69 small tumours, n = 10 treated): two
- Median survival ([4]; H69 small tumours): > 90 days
